According to PMC11554844, “BEACH domain proteins function as cargo-sorting adaptors in secretory and endocytic pathways” (The Journal of Cell Biology, 2024):

B1: 3xFlag-EGFP-ALFY [human] / GST-CTLA4 (201–215) [human] (parent complex)
chain 1: MNMVKRIMGRPRQEECSPQDNALGLMHLRRLFTELCHPPRHMTQKEQEEKLYMMLPVFNRVFGNAPPNTMTEKFSDLLQFTTQVSRLMVTEIRRRASNKSTEAASRAIVQFLEINQSEEASRGWMLLTTINLLASSGQKTVDCMTTMSVPSTLVKCLYLFFDLPHVPEAVGGAQNELPLAERRGLLQKVFVQILVKLCSFVSPAEELAQKDDLQLLFSAITSWCPPYNLPWRKSAGEVLMTISRHGLSVNVVKYIHEKECLSTCVQNMQQSDDLSPLEIVEMFAGLSCFLKDSSDVSQTLLDDFRIWQGYNFLCDLLLRLEQAKEAESKDALKDLVNLITSLTTYGVSELKPAGITTGAPFLLPGFAVPQPAGKGHSVRNVQAFAVLQNAFLKAKTSFLAQIILDAITNIYMADNANYFILESQHTLSQFAEKISKLPEVQNKYFEMLEFVVFSLNYIPCKELISVSILLKSSSSYHCSIIAMKTLLKFTRHDYIFKDVFREVGLLEVMVNLLHKYAALLKDPTQALNEQGDSRNNSSVEDQKHLALLVMETLTVLLQGSNTNAGIFREFGGARCAHNIVKYPQCRQHALMTIQQLVLSPNGDDDMGTLLGLMHSAPPTELQLKTDILRALLSVLRESHRSRTVFRKVGGFVYITSLLVAMERSLSCPPKNGWEKVNQNQVFELLHTVFCTLTAAMRYEPANSHFFKTEIQYEKLADAVRFLGCFSDLRKISAMNVFPSNTQPFQRLLEEDVISIESVSPTLRHCSKLFIYLYKVATDSFDSRAEQIPPCLTSESSLPSPWGTPALSRKRHAYHSVSTPPVYPPKNVADLKLHVTTSSLQSSDAVIIHPGAMLAMLDLLASVGSVTQPEHALDLQLAVANILQSLVHTERNQQVMCEAGLHARLLQRCSAALADEDHSLHPPLQRMFERLASQALEPMVLREFLRLASPLNCGAWDKKLLKQYRVHKPSSLSYEPEMRSSMITSLEGLGTDNVFSLHEDNHYRISKSLVKSAEGSTVPLTRVKCLVSMTTPHDIRLHGSSVTPAFVEFDTSLEGFGCLFLPSLAPHNAPTNNTVTTGLIDGAVVSGIGSGERFFPPPSGLSYSSWFCIEHFSSPPNNHPVRLLTVVRRANSSEQHYVCLAIVLSAKDRSLIVSTKEELLQNYVDDFSEESSFYEILPCCARFRCGELIIEGQWHHLVLVMSKGMLKNSTAALYIDGQLVNTVKLHYVHSTPGGSGSANPPVVSTVYAYIGTPPAQRQIASLVWRLGPTHFLEEVLPSSNVTTIYELGPNYVGSFQAVCMPCKDAKSEGVVPSPVSLVPEEKVSFGLYALSVSSLTVARIRKVYNKLDSKAIAKQLGISSHENATPVKLIHNSAGHLNGSARTIGAALIGYLGVRTFVPKPVATTLQYVGGAAAILGLVAMASDVEGLYAAVKALVCVVKSNPLASKEMERIKGYQLLAMLLKKKRSLLNSHILHLTFSLVGTVDSGHETSIIPNSTAFQDLLCDFEVWLHAPYELHLSLFEHFIELLTESSEASKNAKLMREFQLIPKLLLTLRDMSLSQPTIAAISNVLSFLLQGFPSSNDLLRFGQFISSTLPTFAVCEKFVVMEINNEEKLDTGTEEEFGGLVSANLILLRNRLLDILLKLIYTSKEKTSINLQACEELVKTLGFDWIMMFMEEHLHSTTVTAAMRILVVLLSNQSILIKFKEGLSGGGWLEQTDSVLTNKIGTVLGFNVGRSAGGRSTVREINRDACHFPGFPVLQSFLPKHTNVPALYFLLMALFLQQPVSELPENLQVSVPVISCRSKQGCQFDLDSIWTFIFGVPASSGTVVSSIHNVCTEAVFLLLGMLRSMLTSPWQSEEEGSWLREYPVTLMQFFRYLYHNVPDLASMWMSPDFLCALAATVFPFNIRPYSEMVTDLDDEVGSPAEEFKAFAADTGMNRSQSEYCNVGTKTYLTNHPAKKFVFDFMRVLIIDNLCLTPASKQTPLIDLLLEASPERSTRTQQKEFQTYILDSVMDHLLAADVLLGEDASLPITSGGSYQVLVNNVFYFTQRVVDKLWQGMFNKESKLLIDFIIQLIAQSKRRSQGLSLDAVYHCLNRTILYQFSRAHKTVPQQVALLDSLRVLTVNRNLILGPGNHDQEFISCLAHCLINLHVGSNVDGFGLEAEARMTTWHIMIPSDIEPDGSYSQDISEGRQLLIKAVNRVWTELIHSKKQVLEELFKVTLPVNERGHVDIATARPLIEEAALKCWQNHLAHEKKCISRGEALAPTTQSKLSRVSSGFGLSKLTGSRRNRKESGLNKHSLSTQEISQWMFTHIAVVRDLVDTQYKEYQERQQNALKYVTEEWCQIECELLRERGLWGPPIGSHLDKWMLEMTEGPCRMRKKMVRNDMFYNHYPYVPETEQETNVASEIPSKQPETPDDIPQKKPARYRRAVSYDSKEYYMRLASGNPAIVQDAIVESSEGEAAQQEPEHGEDTIAKVKGLVKPPLKRSRSAPDGGDEENQEQLQDQIAEGSSIEEEEKTDNATLLRLLEEGEKIQHMYRCARVQGLDTSEGLLLFGKEHFYVIDGFTMTATREIRDIETLPPNMHEPIIPRGARQGPSQLKRTCSIFAYEDIKEVHKRRYLLQPIAVEVFSGDGRNYLLAFQKGIRNKVYQRFLAVVPSLTDSSESVSGQRPNTSVEQGSGLLSTLVGEKSVTQRWERGEISNFQYLMHLNTLAGRSYNDLMQYPVFPWILADYDSEEVDLTNPKTFRNLAKPMGAQTDERLAQYKKRYKDWEDPNGETPAYHYGTHYSSAMIVASYLVRMEPFTQIFLRLQGGHFDLADRMFHSVREAWYSASKHNMADVKELIPEFFYLPEFLFNSNNFDLGCKQNGTKLGDVILPPWAKGDPREFIRVHREALECDYVSAHLHEWIDLIFGYKQQGPAAVEAVNVFHHLFYEGQVDIYNINDPLKETATIGFINNFGQIPKQLFKKPHPPKRVRSRLNGDNAGISVLPGSTSDKIFFHHLDNLRPSLTPVKELKEPVGQIVCTDKGILAVEQNKVLIPPTWNKTFAWGYADLSCRLGTYESDKAMTVYECLSEWGQILCAICPNPKLVITGGTSTVVCVWEMGTSKEKAKTVTLKQALLGHTDTVTCATASLAYHIIVSGSRDRTCIIWDLNKLSFLTQLRGHRAPVSALCINELTGDIVSCAGTYIHVWSINGNPIVSVNTFTGRSQQIICCCMSEMNEWDTQNVIVTGHSDGVVRFWRMEFLQVPETPAPEPAEVLEMQEDCPEAQIGQEAQDEDSSDSEADEQSISQDPKDTPSQPSSTSHRPRAASCRATAAWCTDSGSDDSRRWSDQLSLDEKDGFIFVNYSEGQTRAHLQGPLSHPHPNPIEVRNYSRLKPGYRWERQLVFRSKLTMHTAFDRKDNAHPAEVTALGISKDHSRILVGDSRGRVFSWSVSDQPGRSAADHWVKDEGGDSCSGCSVRFSLTERRHHCRNCGQLFCQKCSRFQSEIKRLKISSPVRVCQNCYYNLQHERGSEDGPRNC
chain 2: YVKMPPTEPECEKQF

Variants of: B1
Assay: GST pulldown, anti-flag western blot quantification; HeLa 3xFlag-EGFP-ALFY cell lysate; three independent experiments; read off a plot

| Variant | response |
| --- | --- |
| chain 2 YVKMPPTEPECEAQF [chain 2 K13A] | ~0.5 |
| chain 2 YVKMPPTEPECAKQF [chain 2 E12A] | ~1.2 |
| chain 2 YVKMPPTEAECEKQF [chain 2 P9A] | ~0.77 |
| chain 2 YVKMPPTEPECEKQA [chain 2 F15A] | ~1.1 |
| chain 2 YAKMPPTEPECEKQF [chain 2 V2A] | ~1.7 |
| chain 2 YVKMPPTEPEAEKQF [chain 2 C11A] | ~0.78 |
| chain 2 YVKMPPTAPECEKQF [chain 2 E8A] | ~1.4 |
| chain 2 YVKMAPTEPECEKQF [chain 2 P5A] | ~0.87 |
| chain 2 YVKMPATEPECEKQF [chain 2 P6A] | ~0.67 |
| chain 2 YVAMPPTEPECEKQF [chain 2 K3A] | ~0.55 |
| chain 2 AVKMPPTEPECEKQF [chain 2 Y1A] | ~1.4 |
| chain 2 YVKMPPTEPECEKAF [chain 2 Q14A] | ~0.68 |
| chain 2 YVKMPPAEPECEKQF [chain 2 T7A] | ~1.5 |
| chain 2 YVKAPPTEPECEKQF [chain 2 M4A] | ~1.6 |
| chain 2 YVKMPPTEPACEKQF [chain 2 E10A] | ~1.2 |
